The values that follow are results of earlier work, collected in US20190360013.

The data set deals with mEcSSB (monomeric E. coli SSB) (Escherichia coli). To be noted: CITED; at ion concentrations optimal for TdT; footprint 65 nt.

On to ssDNA (65-nt footprint), for which the Kd is under 1 pM.
